From patent publication US20130052195A1 (EMERGENT PRODUCT DEVELOPMENT SEATTLE, published 2013)

Molecular target: T1, murine IL6 (murine, UniProt P08505 25-211)
T1 construct: also called mIL-6; mIL6
T1 sequence (looked up): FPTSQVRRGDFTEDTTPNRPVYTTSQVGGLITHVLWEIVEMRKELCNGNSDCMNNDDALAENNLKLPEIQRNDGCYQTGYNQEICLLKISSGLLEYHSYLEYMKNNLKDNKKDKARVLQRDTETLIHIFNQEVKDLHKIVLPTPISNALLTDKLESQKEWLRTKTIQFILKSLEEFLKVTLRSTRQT
Experiment: not described (statement in Example 1)

B1: A2-XT6 (multi-target binding molecule with the TNFR extracellular domain (ECD) at the N-terminal end and the anti-hyperIL6 scFv at the carboxy-terminal end) (other)
chain: LPAQVAFTPYAPEPGSTCRLREYYDQTAQMCCSKCSPGQHAKVFCTKTSDTVCDSCEDSTYTQLWNWVPECLSCGSRCSSDQVETQACTREQNRICTCRPGWYCALSKQEGCRLCAPLRKCRPGFGVARPGTETSDVVCKPCAPGTFSNTTSSTDICRPHQICNVVAIPGNASMDAVCTSTSPTRSMAPGAVHLPQPVSTRSQHTQPTPEPSTAPSTSFLLPMGPSPPAEGSTGDTGEPKSSDKTHTCPPCPAPEAAGAPSVFLFPPKPKDTLMISRTPEVTCVVVDVSHEDPEVKFNWYVDGVEVHNAKTKPREEQYNSTYRVVSVLTVLHQDWLNGKAYACAVSNKALPAPIEKTISKAKGQPREPQVYTLPPSRDELTKNQVSLTCLVKGFYPSDIAVEWESNGQPENNYKTTPPVLDSDGSFFLYSKLTVDKSRWQQGNVFSCSVMHEALHNHYTQKSLSLSPGQRHNNSSLNTRTQKARHSPNSEVQLLESGGGLVQPGGSLRLSCAASGFTFSFYQMHWVRQAPGKGLEWVSGIYPSGGYTKYADSVKGRFTISRDNSKNTLYLQMNSLRAEDTAVYYCARDLGYGSSWYYFDYWGQGTLVTVSSGGGGSGGGGSGGGGSQSALTQPASVSGSPGQSITISCSGTDSDVGGYNHVSWYQQHPGKAPKLIIYDVDHRPSGISNRFSGSKSGNTASLTISGLQAEDEADYYCSSYRSGSTYVFGTGTKVTVL
notes: also called Zeu080a; TRU(XT6)-1002
**Q.** Does B1 bind?
**A.** Result: no binding
